Publication PMC3401450 (Nucleic Acids Research, 2012)
“And” between values parts separate entries of the source, which are not always exact repeats. Equal values may be shown once.

How the values were obtained:
[1] = target: Full-length Dreb2a fused to His-tag and GB1-tag (GB1-Dreb2a f.l.) (A. thaliana) (UniProt O82132); assay: cross-linking
Dreb2a f.l. (GB1 fusion) = Dreb2a f.l. (GB1 fusion) (Arabidopsis thaliana, UniProt O82132 1-335); assay: EMSA
[2] = target: Dreb2a f.l. (GB1 fusion);Med25 551-680 (ACID domain) (Arabidopsis thaliana;Arabidopsis …, UniProt O82132;Q7XYY2 1-335;551-680, |); assay: EMSA supershift
[3] = target: T1, Dreb2a 168-335 (binding domain and activation domain of Dreb2a) (A. thaliana, UniProt O82132 168-335); assay: SPR
T1 sequence (looked up): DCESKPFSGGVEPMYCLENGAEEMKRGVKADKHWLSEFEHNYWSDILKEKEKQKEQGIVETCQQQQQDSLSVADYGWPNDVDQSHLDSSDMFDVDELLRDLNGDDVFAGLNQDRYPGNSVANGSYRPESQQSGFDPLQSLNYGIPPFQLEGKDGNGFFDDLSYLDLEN

[4] = target: T2, Full-length Dreb2a fused to His-tag and GB1-tag (GB1-Dreb2a f.l.) (A. thaliana, UniProt O82132 1-335); assay: SPR
[5] = target: T2, Full-length Dreb2a fused to His-tag and …; assay: cross-linking

With “Med25 551-680-GST (GST-tagged ACID domain of Arabidopsis thaliana Med25) (from UniProt Q7XYY2 551-680) (domain or fragment)” the stoichiometry N [1] was 1 and 2.

B1: 29-nt rd29A mutated DRE mut-probe (dsDNA)
DNA 1: AAAGATATACTACTTTTATGAGTTCCAAA
DNA 2: TTTGGAACTCATAAAAGTAGTATATCTTT
B1: no binding (Dreb2a f.l. (GB1 fusion)).

B2: 29-nt rd29A DRE Wt-probe (dsDNA)
DNA 1: AAAGATATACTACCGACATGAGTTCCAAA
DNA 2: TTTGGAACTCATGTCGGTAGTATATCTTT
B2: binds (Dreb2a f.l. (GB1 fusion)); binds [2].

B3: Med25 551-680 (ACID domain of the Med25 mediator subunit from Arabidopsis thaliana), GST-tag removed (domain or fragment, A. thaliana, UniProt Q7XYY2 551-680, looked up)
chain: TSQSKYVKVWEGNLSGQRQGQPVLITRLEGYRSASASDSLAANWPPTMQIVRLISQDHMNNKQYVGKADFLVFRAMSQHGFLGQLQDKKLCAVIQLPSQTLLLSVSDKACRLIGMLFPGDMVVFKPQIPN
For B3, the Kd [3] was ~1 µM, the Kd [4] was ~0.1 µM and the “stoichiometry N” value [5] was 2.
